Consider three molecules from patent US20220204930A1 (KITE PHARMA, published 2022).

Assay [1] deals with T1, recombinant PSMA (rPSMA) containing a 6x His tag (human, UniProt Q04609 44-750).
T1 construct: Soluble staining reagent, detected with an anti-His antibody; also called prostate-specific membrane antigen
Kind of assay: flow cytometry, rPSMA-6xHis + anti-His; synNotch/CAR-payload T cells without myc beads (CAR not induced); donor #3. As for the experimental part:
(§1) Seven days after transduction, T cells transduced as described in example 1 were harvested to determine transduction efficiencies. 1.5×10⁵ T cells were plated in 96 well plates in duplicate. For canonical CAR T cells, T cells were cultured overnight in hTCM (human T cell media), that included of x-vivo 15 (Lonza (Basel, Switzerland)), 5% human serum (Valley Biomedical (Winchester, Va.)), and 1% Glutamax (Gibco). For synNotch T receptor expressing cells, the T cells were cultured in the presence and absence of myc beads overnight to stimulate the synNotch receptor and therebyinduce CAR expression. After overnight culture, CAR expression was measured using recombinant PSMA (rPSMA) containing a 6× His tag (SEQ ID NO: 260). The cells were stained with an anti-His antibody and the stained cells were detected via flow cytometry. Only cells bound by the rPSMA (and anti-His) are detected to measure expression.

Assay [2] deals with T1, recombinant PSMA (rPSMA) containing a …. Kind of assay: flow cytometry of canonical CAR T cells stained with rPSMA-6xHis and anti-His; donor #1. The method, then:
as §1
A general note: In flow cytometry, cells or beads pass a laser one at a time.

Assay [3] has the same target. Description: flow cytometry, rPSMA-6xHis + anti-His; synNotch/CAR-payload T cells without myc beads (CAR not induced); donor #1.

T1 sequence (Q04609 other isoform, or with tags, fused parts or gaps limits assumed): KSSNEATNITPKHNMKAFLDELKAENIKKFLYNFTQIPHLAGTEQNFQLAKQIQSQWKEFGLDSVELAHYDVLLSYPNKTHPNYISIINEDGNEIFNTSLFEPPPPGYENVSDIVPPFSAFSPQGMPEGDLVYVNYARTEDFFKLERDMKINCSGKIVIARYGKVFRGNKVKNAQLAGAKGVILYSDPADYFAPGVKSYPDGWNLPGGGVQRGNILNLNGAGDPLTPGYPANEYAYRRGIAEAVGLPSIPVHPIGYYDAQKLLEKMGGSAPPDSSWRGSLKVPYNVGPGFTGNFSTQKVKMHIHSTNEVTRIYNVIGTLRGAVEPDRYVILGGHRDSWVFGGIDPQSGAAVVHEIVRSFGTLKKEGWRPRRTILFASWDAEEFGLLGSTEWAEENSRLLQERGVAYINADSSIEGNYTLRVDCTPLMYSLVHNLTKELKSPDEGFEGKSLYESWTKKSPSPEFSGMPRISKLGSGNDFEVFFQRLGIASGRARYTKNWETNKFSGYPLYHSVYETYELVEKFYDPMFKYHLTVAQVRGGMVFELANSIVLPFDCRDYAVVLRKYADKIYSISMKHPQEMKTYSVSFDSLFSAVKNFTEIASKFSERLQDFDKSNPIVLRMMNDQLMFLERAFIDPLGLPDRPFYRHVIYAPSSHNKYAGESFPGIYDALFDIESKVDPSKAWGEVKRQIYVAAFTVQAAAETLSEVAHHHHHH

B1: anti-PSMA CAR with Ab1 scFv (other)
chain: DIQLTQSPSSLSASVGDRVTITCRASSSVSHIYWYQQKPGKAPKPWIYRTSNLASGVPSRFSGSGSGTDYTLTISSLQPEDFATYYCQQYHTYPPTFGQGTKLEIKGSTSGSGKPGSGEGSTKGEVQLVESGGGLVQPGGSMRLSCAASGFTFSDYYMAWVRQAPGKGLEWIANINYDGSNTYYADSLKGRFTISRDNSKNTLYLQMNSLRAEDTAVYYCARNWDGYYGYFDVWGQGTTVTVSS
notes: Chimeric antigen receptor on the surface of transduced human T cells; Construct 101 is the constitutive EF1a vector and 201 the GAL4-inducible payload vector; also called Abl; construct 101; not shown: CD8a hinge, CD8a transmembrane, 4-1BB and CD3zeta domains
B1: the “% CAR+ (Unstimulated)” value in assay [1] was 6.2%; in assay [3] it was 3.7%. Also, the “% CAR+” value in assay [2] stood at 95.4%.

B2: anti-PSMA CAR with Ab3 scFv (other)
chain: EVQLVESGGGLVQPGGSMRLSCAASGFTFSDYYMAWVRQAPGKGLEWVANINYDGTSTYYADSLKGRFTISRDSSKNTLYLQMNSLRAEDTAVYYCARALDGYYGYLDVWGQGTTVTVSSGSTSGSGKPGSGEGSTKGDIQLTQSPSSLSASVGDRVTLTCRASQSISNNLHWYQQKPGKAPKLLIKYVSQSISGIPSRFSGSGLGTDFTLTISSVQPEDFATYYCQQSNSWPYTFGQGTKLEIK
notes: Chimeric antigen receptor on the surface of transduced human T cells; Constructs 103 (constitutive) and 203 (inducible payload) are treated as the same CAR protein; also called construct 103; construct 203; not shown: CD8a hinge, CD8a transmembrane, 4-1BB and CD3zeta domains
Consider B2, for which the “% CAR+ (Unstimulated)” value in assay [1] came to 4.6%; in assay [3], 3.2%.

B3: anti-PSMA CAR with Ab2 scFv (other)
chain: DIQMTQSPSSLSASVGDRVTVTCRASQNVNTNVAWYQQKPGKAPKVLIYSASYRNSGVPSRFSGSGSGTDFTLTISSVQPEDFATYYCQQYNSYPFTFGQGTKLEIKGSTSGSGKPGSGEGSTKGQVQLVQSGAEVKKPGASVKLSCKASGYTFTTYWMHWVRQAPGQGLEWIGMIHPNSGSTNYAQKFQGRATLTVDTSTSTAYMELSSLRSEDTAVYYCARDPYDYGEDFDVWGQGTTVTVSS
notes: Chimeric antigen receptor on the surface of transduced human T cells, expressed from the GAL4-inducible payload vector; also called construct 202; Ab6 SynNotch/202; not shown: CD8a hinge, CD8a transmembrane, 4-1BB and CD3zeta domains
B3: the “% CAR+ (Unstimulated)” value in assay [1] worked out at 1.4%.
